The values below come from patent publication US20230043813A1, “METHODS FOR TARGETED CELL DEPLETION” (The Regents of the University of California, priority 2019, published 2023).

Assay [1] has as its system GFP reporter in HEK-RT1 cells. In words: rapid mammalian genome editing reporter assay (HEK-RT1, GFP disruption). The format is cell-based, human. The note with it: transient transfection, with active or deactivated proteases.
Excerpt: To establish a rapid and quantitative way to reliably assess genome editing efficiency from various CRISPR-Cas constructs in mammalian cells, a fluorescence-based reporter assay was built. […] To quantify this effect, HEK293T cells were stably transduced with a retroviral vector (LMP-Pten.1524) constitutively expressing GFP (Fellmann et al., 2013), and established monoclonal derivatives.
Specifically, inducible monoclonal HEK293T-based genome editing reporter cells, referred to as “HEK-RT1,” were established in a two-step procedure. In the first step, puromycin resistant monoclonal HEK-RT3-4 reporter cells were generated (Park et al., 2018). In brief, HEK293T human embryonic kidney cells were transduced at low-copy with the amphotropic pseudotyped RT3GEPIR-Ren.713 retroviral vector (Fellmann et al., 2013), comprising an all-in-one Tet-On system enabling doxycycline-controlled GFP expression. After puromycin (2.0 μg/ml) selection of transduced HEK239 Ts, 36 clones were isolated and individually assessed for i) growth characteristics, ii) homogeneous morphology, iii) sharp fluorescence peaks of doxycycline (1 μg/ml) inducible GFP expression, iv) relatively low fluorescence intensity to favor clones with single-copy reporter integration, and v) high transfectability.
Since HEK-RT3-4 are puromycin resistant, in the second step, monoclonal HEK-RT1 and analogous sister reporter cell lines were derived by transient transfection of HEK-RT3-4 cells with a pair of vectors encoding Cas9 and guide RNAs targeting puromycin (sgPuro5, sgPuro6), followed by identification of monoclonal derivatives that are puromycin sensitive. In total, eight clones were isolated and individually assessed for i) growth characteristics, ii) homogeneous morphology, iii) doxycycline (1 μg/ml) inducible and reversible GFP fluorescence, and v) puromycin and hygromycin B sensitivity. […] The HEK-RT1 cell line was chosen as rapid mammalian genome editing reporter system for all further assays.
A guide RNA targeting the GFP fluorescence reporter (sgGFP9) was compared to a non-targeting control (sgNT). […] GFP expression in HEK-RT1 reporter cells was induced for 24-48 hour using doxycycline (1 μg/ml; Sigma-Aldrich), at the indicated days post-editing.
Assay [2] concerns GFP or RFP expression in E. coli MG1655. In words: E. coli CRISPRi GFP/RFP repression assay. The format is cell-based. The note with it: Cas9-CP199 with protease cleavage site as CP linker. On the procedure: Assays were performed using methods like those described by Oakes et al. (2016).
Endpoint Assay: Cells were picked in biological triplicate into 96 well plates containing 500 μL EZ MOPS plus Carb and CM. Plates were grown in 37° C. shakers for twelve hours. Next, cells were diluted 1:1000 in 500 μL EZ MOPS plus Carb, CM, IPTG and aTc. Two hundred nM aTc was used to induce Cas9-CPs or ProCas9s and 50 μM IPTG levels was used to induce the proteases in a 2 mL deep well blocks and shaken at 750 rpm at 37° C. After an eight-twelve-hour induction and growth period, 20 μL of cells were added to 80 μL of water and put into a 96-well microplate reader (Tecan M1000) at 37° C. and read immediately. Each well was measured for optical density at 600 nm and GFP or RFP fluorescence. GFP expression was normalized by dividing it with OD600. In the case of the time course assays, 150 μL of the 1:1000 dilution was used and placed into a black walled clear bottom plate (3631-Corning) and directly into the Tecan M1000 for a 130× 600 s kinetic cycle of reading. For E. coli single cell analysis, cells from the endpoint time course were run on a Sony SH800 to capture 100,000 events per sample.

A further assay has as its target T1, WNV protease (Kunjin virus, UniProt P14335).
T1 construct: expressed in transfected cells; host or cells: HEK293T (293FT)
In words: immunoblot of ProCas9Flavi activation in HEK293T. The format is cell-based, human. The note with it: HEK293T co-transfected with WNV protease. As for the experimental part: HEK293T (293FT; Thermo Fisher Scientific) were co-transfected with the indicated plasmids expressing Cas9-wt or ProCas9-Flavi and plasmids expressing dTEV or WNV protease. HEK293T cells were split to reach a confluency of 70%-90% at time of transfection. For transfections in 6-well plates, 1 μg Cas9-sgRNA vector and 0.75 μg protease vector (if applicable) were mixed in 0.4 mL Opti-MEM, followed by addition of 5.25 μg polyethylenimine (PEI; Polysciences #23966). After 20-30 min incubation at room temperature, the transfection reactions were dispersed over the HEK293T cells. Media was changed 12-hour post-transfection. At 36-hour post-transfection, HEK293T were washed in ice-cold PBS and scraped from the plates. Cell pellets were lysed in Laemmli buffer (62.5 mMTris-HCl pH 6.8, 10% glycerol, 2% SDS, 5% 2-mercaptoethanol). Equal amounts of protein were separated on 4%-20% Mini-PROTEAN TGX gels (Bio-Rad, #456-1095) and transferred to 0.2 μm PVDF membranes (Bio-Rad, #162-0177). Blots were blocked in 5% milk in TBST 0.1% (TBS+[…]) for 1 hour; all antibodies were incubated in 5% milk in TBST 0.1% at 4° C. overnight; blots were washed in TBST 0.1%. The abundance of b-actin (ACTB) was monitored to ensure equal loading. […]
For orientation: A western blot detects proteins with antibodies after separation by electrophoresis.

T1 sequence (P14335 1506-2124): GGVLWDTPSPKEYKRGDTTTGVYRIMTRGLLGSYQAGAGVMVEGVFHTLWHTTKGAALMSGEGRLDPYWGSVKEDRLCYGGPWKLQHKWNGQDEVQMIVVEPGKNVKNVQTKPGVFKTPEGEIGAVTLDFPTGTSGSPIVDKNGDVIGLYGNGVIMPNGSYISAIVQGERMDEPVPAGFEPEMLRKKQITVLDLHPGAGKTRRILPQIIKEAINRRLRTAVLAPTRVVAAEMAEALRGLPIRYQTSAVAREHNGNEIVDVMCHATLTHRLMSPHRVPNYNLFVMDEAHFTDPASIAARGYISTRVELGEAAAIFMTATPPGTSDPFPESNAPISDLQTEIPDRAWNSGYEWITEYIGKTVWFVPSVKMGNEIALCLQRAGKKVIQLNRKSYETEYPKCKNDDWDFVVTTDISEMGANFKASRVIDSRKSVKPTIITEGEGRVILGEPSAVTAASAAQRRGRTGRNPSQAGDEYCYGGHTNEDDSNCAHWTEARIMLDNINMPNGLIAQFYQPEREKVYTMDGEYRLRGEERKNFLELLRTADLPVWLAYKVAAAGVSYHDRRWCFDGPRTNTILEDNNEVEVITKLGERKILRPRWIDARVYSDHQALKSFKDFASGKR
T1 sequence (P14335 1375-1505): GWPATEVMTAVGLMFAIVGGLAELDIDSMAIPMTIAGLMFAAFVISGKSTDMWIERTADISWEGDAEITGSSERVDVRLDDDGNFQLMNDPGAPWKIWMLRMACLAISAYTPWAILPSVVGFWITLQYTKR

B1: ProCas9Flavi: ProCas9 with WNV linker sequence KQKKR/GGK, Flavivirus protease-sensitive caged Cas9 (SEQ ID NO:50) (protein)
chain: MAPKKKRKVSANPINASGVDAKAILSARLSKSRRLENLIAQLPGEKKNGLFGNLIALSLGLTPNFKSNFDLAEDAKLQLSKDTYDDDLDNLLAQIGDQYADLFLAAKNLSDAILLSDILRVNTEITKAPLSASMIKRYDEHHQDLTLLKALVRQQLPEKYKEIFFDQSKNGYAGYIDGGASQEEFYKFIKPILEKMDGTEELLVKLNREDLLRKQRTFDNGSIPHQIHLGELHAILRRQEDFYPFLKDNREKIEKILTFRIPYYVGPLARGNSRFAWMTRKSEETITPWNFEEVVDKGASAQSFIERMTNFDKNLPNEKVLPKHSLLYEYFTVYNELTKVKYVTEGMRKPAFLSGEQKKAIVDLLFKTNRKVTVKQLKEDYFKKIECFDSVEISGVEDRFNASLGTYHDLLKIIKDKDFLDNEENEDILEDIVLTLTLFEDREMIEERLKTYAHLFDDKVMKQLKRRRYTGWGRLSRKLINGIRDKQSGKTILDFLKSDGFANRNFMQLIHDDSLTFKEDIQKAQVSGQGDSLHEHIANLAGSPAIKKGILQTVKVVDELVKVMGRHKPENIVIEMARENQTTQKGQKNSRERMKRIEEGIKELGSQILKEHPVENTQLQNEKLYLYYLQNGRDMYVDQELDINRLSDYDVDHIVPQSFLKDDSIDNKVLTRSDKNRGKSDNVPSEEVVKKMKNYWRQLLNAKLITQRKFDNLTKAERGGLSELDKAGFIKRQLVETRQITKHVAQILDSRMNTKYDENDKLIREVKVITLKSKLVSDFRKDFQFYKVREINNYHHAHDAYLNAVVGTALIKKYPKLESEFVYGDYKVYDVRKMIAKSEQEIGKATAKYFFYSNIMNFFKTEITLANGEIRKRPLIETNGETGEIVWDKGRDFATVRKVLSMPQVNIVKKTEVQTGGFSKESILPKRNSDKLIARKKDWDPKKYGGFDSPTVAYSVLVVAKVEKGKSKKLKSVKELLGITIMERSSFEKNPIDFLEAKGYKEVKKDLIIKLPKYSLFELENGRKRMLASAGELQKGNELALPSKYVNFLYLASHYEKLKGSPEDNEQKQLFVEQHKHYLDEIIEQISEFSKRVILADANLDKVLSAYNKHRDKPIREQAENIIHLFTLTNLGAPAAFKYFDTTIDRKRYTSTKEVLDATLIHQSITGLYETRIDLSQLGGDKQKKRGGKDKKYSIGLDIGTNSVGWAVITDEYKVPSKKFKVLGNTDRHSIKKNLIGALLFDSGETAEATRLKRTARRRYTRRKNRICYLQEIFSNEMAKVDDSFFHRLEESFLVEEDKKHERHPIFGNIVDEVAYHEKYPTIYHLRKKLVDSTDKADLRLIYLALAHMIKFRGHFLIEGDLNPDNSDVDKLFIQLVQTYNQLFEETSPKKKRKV
For B1, the GFP disruption result in assay [1] is given as “GFP disruption only in the presence of the active proteases”. Also, the “ProCas9 activation by co-expressed viral proteases” value in assay [2] was “activated by NS2B-NS3 proteases from both Zika and WNV”. Further, in the assay with WNV protease, the “activation (cleavage into two subunits) by immunoblot” value is “vast majority of vigilant ProCas9Flavi was activated and observed as two distinct subunits”.
